Results: the supplement of paper PMC7125110
± gives the standard error. Fewer inactive variants are shown than the library holds.

B1: glmS ribozyme (parent)
chain: AUAAAAGCGCCAGAACUACAGAAAUGUAGUUGACGAGGAGGAGGUUUAUCGAAUUUUCGGCGGAUGCCUCCAAA

Tests used:
Conditions in all cases: with glucosamine-6-phosphate
glucosamine-6-phosphate [1] = variants of: B1; assay: self-cleavage kobs at 40 uM GlcN6P; higher = faster cleavage; RNA array
Outline: (§1)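 Barcoded ribozyme variants, transcribed in situ by E. coli RNA polymerase on sequenced MiSeq chips, were followed via a hybridised Cy3 probe at 37 °C. Glucosamine-6-phosphate ranged from 40 μM to 10 mM in HEPES/KCl/Mg(OAc)2 buffer. kobs came from decay fits to per-tile medians, and kcat and KM from weighted Michaelis–Menten fits.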

glucosamine-6-phosphate [2] = variants of: B1; assay: self-cleavage kobs at 10000 uM GlcN6P; higher = faster cleavage; RNA array
Outline: as §1

glucosamine-6-phosphate [3] = variants of: B1; assay: self-cleavage kobs at 160 uM GlcN6P; higher = faster cleavage; RNA array
Outline: as §1

glucosamine-6-phosphate [4] = variants of: B1; assay: self-cleavage kobs at 640 uM GlcN6P; higher = faster cleavage; RNA array
Outline: as §1

glucosamine-6-phosphate [5] = variants of: B1; assay: self-cleavage kobs at 2500 uM GlcN6P; higher = faster cleavage; RNA array
Outline: as §1

Row | Variant | self-cleavage kobs at 40 uM GlcN6P (glucosamine-6-phosphate [1]) [s⁻¹] | self-cleavage kobs at 10000 uM GlcN6P (glucosamine-6-phosphate [2]) [s⁻¹] | self-cleavage kobs at 160 uM GlcN6P (glucosamine-6-phosphate [3]) [s⁻¹] | self-cleavage kobs at 640 uM GlcN6P (glucosamine-6-phosphate [4]) [s⁻¹] | self-cleavage kobs at 2500 uM GlcN6P (glucosamine-6-phosphate [5]) [s⁻¹]
1 | G40C G41C | < 1e-05 | 6.89e-05 ± 1.3e-05 | – | – | –
2 | G9U A42U | < 1e-05 | – | < 1e-05 | < 1e-05 | < 1e-05
3 | U55A U56C | 0.00013 ± 2.5e-05 | 0.00781 ± 0.0012 | 0.000191 ± 3e-05 | 0.000919 ± 0.00017 | 0.00258 ± 0.00063
4 | C34A U45A | < 1e-05 | – | < 1e-05 | < 1e-05 | < 1e-05
5 | A12U U30C C68A | < 1e-05 | – | – | – | –
6 | G51U G62U | < 1e-05 | < 1e-05 | < 1e-05 | – | –
7 | U30A A39G | 0.000182 ± 2.7e-05 | 0.0319 ± 0.014 | 0.000615 ± 0.00023 | 0.00306 ± 0.0014 | –
8 | A6U C11G U46G C68A | < 1e-05 | – | – | < 1e-05 | < 1e-05
9 | G9A C16G | < 1e-05 | – | < 1e-05 | < 1e-05 | < 1e-05
10 | A5U G40C | 0.000123 ± 2.6e-05 | – | – | – | 0.000574 ± 0.00021
11 | A14G U31A A36U A64G | < 1e-05 | – | – | – | –
12 | G29C A33G G38A G40C G43C | < 1e-05 | – | – | – | –
13 | G9U G60U C71G | < 1e-05 | – | – | – | –
14 | G35U U45A C50G | < 1e-05 | – | – | – | –
15 | G43U A48G U65A G66U C70A | < 1e-05 | – | – | – | –
16 | G7C G29C | < 1e-05 | < 1e-05 | – | < 1e-05 | < 1e-05
17 | C16G A48C | < 1e-05 | 4.28e-05 ± 1.7e-05 | < 1e-05 | < 1e-05 | –
18 | A12U G35U U49C | < 1e-05 | – | – | – | < 1e-05
19 | G29C C34A | < 1e-05 | < 1e-05 | < 1e-05 | < 1e-05 | < 1e-05
20 | A42G C71A | 0.000338 ± 7.5e-05 | 0.0105 ± 0.003 | 0.000606 ± 0.00021 | 0.00207 ± 0.00033 | 0.00316 ± 0.0013
21 | C34G A64U | < 1e-05 | < 1e-05 | < 1e-05 | < 1e-05 | < 1e-05
22 | A14G U47A C50A | < 1e-05 | – | – | – | –
